# Like-named read-outs stand apart in the source and are kept apart here.
# T1: human GM-CSFRα, full length on cells (human, UniProt P15509 23-400)
# T1 sequence: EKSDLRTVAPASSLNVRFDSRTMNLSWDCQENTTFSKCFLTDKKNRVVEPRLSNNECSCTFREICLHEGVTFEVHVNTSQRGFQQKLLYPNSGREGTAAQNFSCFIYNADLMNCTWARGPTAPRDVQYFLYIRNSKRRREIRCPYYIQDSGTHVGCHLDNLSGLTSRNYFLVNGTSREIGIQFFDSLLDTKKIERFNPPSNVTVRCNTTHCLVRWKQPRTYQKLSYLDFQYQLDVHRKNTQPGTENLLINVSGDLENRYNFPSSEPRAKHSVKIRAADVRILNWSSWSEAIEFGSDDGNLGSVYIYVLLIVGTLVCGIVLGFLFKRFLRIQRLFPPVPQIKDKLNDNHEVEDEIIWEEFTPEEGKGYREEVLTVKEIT
# T2: cynomolgus monkey GM-CSFRα on granulocytes (cynomolgus monkey, UniProt A0A2K5UC70 23-393)
# T2 sequence: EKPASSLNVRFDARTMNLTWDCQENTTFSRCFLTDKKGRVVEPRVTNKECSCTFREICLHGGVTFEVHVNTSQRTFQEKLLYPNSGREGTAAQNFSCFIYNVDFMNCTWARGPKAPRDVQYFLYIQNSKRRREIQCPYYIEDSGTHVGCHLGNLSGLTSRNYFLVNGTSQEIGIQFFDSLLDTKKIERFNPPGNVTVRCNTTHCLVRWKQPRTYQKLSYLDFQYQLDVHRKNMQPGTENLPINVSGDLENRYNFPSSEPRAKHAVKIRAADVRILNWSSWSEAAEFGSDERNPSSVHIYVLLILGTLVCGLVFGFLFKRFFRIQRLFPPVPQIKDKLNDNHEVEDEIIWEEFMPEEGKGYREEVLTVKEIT
# T3: human GM-CSFRα-6His (human, UniProt P15509 23-320)
# T3 construct: pTT5-GMRa-6his (ECD), made in 293F cells; also called GMRah; GMRa-6his(ECD)
# T3 sequence: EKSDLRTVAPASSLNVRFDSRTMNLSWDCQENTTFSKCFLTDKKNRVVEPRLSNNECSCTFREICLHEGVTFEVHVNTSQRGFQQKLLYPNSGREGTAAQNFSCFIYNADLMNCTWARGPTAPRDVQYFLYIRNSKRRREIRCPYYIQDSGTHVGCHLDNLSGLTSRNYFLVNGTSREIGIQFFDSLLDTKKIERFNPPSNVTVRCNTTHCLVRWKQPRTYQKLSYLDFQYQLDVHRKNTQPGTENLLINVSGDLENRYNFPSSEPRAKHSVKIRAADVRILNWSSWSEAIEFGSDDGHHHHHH
# B1: E35-IgG4 (antibody, V domains shown)
# VH: QMQLVQSGAEVKKPGASVKVSCKVSGYTLTELSIHWVRQAPGKGLEWMGGFDPEDGETIYAQKFQGRVTMTGDTSTDTAYLELSSLRSEDTALYYCATGRYTSLATTYGFDYWGQGTLVTVSS
# VL: EIVMTQSPATLSLSPGERATLSCRASQSVSSYLAWYQQKPGQAPRLLIYGASSRATGIPDRFSGSGSGTDFTLTISRLEPEDFAVYYCQQYDNWPYTFGQGTKLEIK
# notes: human IgG4, human kappa; also called E35-IG4
# B2: E87-IgG4 (antibody, V domains shown)
# VH: QMQLVQSGAEVKKPGASVKVSCKVSGYTLTELSIHWVRQAPGKGLEWMGGFDPEDGETIYAQKSQGRVTMTGDTSTDTAYLELSSLRSEDTALYYCATGRYVSLFFNYGFDYWGQGTLVTVSS
# VL: EIVMTQSPATLSLSPGERATLSCRASQSVSSYLAWYQQKPGQAPRLLIYGASSRATGIPDRFSGSGSGTDFTLTISRLEPEDFAVYYCQQYNNWPPTFGQGTKLEIK
# notes: human IgG4, human kappa
# B3: T119-IgG4 (antibody, V domains shown)
# VH: QMQLVQSGAEVKKPGASVKVSCKVSGHTLTELSIHWVRQAPGKGLEWMGGFDPEDGETNYAQKSQGRVTMTGDTSTDTAYLELSSLRSEDTALYYCATGRYCSTDTCYGFDYWGQGTLVTVSS
# VL: EIVMTQSPATLSLSPGERATLSCRASQSVSSYLAWYQQKPGQAPRLLIYGASSRATGIPDRFSGSGSGTDFTLTISRLEPEDFAVYYCQQYNNWPPTFGQGTKLEIK
# notes: human IgG4, human kappa; parent antibody
# B4: E200a-IgG4 (antibody, V domains shown)
# VH: QMQLVQSGAEVKKPGASVKVSCKVSGYTLTELPMHWVRQAPGKGLEWMGGFDPEDGETIYAQKFQGRVTMTGDTSTDTAYLELSSLRSEDTALYYCATGRYTIITTNYGFDYWGQGTLVTVSS
# VL: EIVMTQSPATLSLSPGERATLSCRASQSVSSYLAWYQQKPGQAPRLLIYGASSRATGIPDRFSGSGSGTDFTLTISRLEPEDFAVYYCQQYDNWPPTFGQGTKLEIK
# notes: human IgG4, human kappa
# B5: E87b-IgG4 (antibody, V domains shown)
# VH: QMQLVQSGAEVKKPGASVKVSCKVSGYTLTELSIHWVRQAPGKGLEWMGGFDPEDGETIYAQKSQGRVTMTGDTSTDTAYLELSSLRSEDTALYYCATGRYVSLFFNYGFDYWGQGTLVTVSS
# VL: EIVMTQSPATLSLSPGERATLSCRASQSVSSYLAWYQQKPGQAPRLLIYGASSRATGIPDRFSGSGSGTDFTLTISRLEPEDFAVYYCQQYDNWPYTFGQGTKLEIK
# notes: human IgG4, human kappa
# B6: EII33-IgG4 (antibody, V domains shown)
# VH: QMQLVQSGAEVKKPGASVKVSCKVSGYTLTELSIHWVRQAPGKGLEWMGGFDGDGEETIYAQKFQGRVTMTGDTSTDTAYLELSSLRSEDTALYYCATGRYTSLAATYGFDYWGQGTLVTVSS
# VL: EIVMTQSPATLSLSPGERATLSCRASQSVSSYLAWYQQKPGQAPRLLIYGASSRATGIPDRFSGSGSGTDFTLTISRLEPEDFAVYYCQQYRNWPFTFGQGTKLEIK
# notes: human IgG4, human kappa
# B7: E108-IgG4 (antibody, V domains shown)
# VH: QMQLVQSGAEVKKPGASVKVSCKVSGHTLTELSIHWVRQAPGKGLEWMGGFDPEDGETIYAQKFQGRVTMTGDTSTDTAYLELSSLRSEDTALYYCATGRYTELYQNYGFDYWGQGTLVTVSS
# VL: EIVMTQSPATLSLSPGERATLSCRASQSVSSYLAWYQQKPGQAPRLLIYGASSRATGIPDRFSGSGSGTDFTLTISRLEPEDFAVYYCQQYNNWPPTFGQGTKLEIK
# B8: EII52-IgG4 (antibody, V domains shown)
# VH: QMQLVQSGAEVKKPGASVKVSCKVSGYTLTELSIHWVRQAPGKGLEWMGGFDGDIEETIYAQKFQGRVTMTGDTSTDTAYLELSSLRSEDTALYYCATGRYTSLATTYGFDYWGQGTLVTVSS
# VL: EIVMTQSPATLSLSPGERATLSCRASQSVSSYLAWYQQKPGQAPRLLIYGASSRATGIPDRFSGSGSGTDFTLTISRLEPEDFAVYYCQQYANPPNTFGQGTKLEIK
# notes: human IgG4, human kappa
# Tests used:
# [1] = biological target: T1, human GM-CSFRα, full length on cells; assay: cell-based or functional assay
# [2] = biological target: T2, cynomolgus monkey GM-CSFRα on …; assay: cell-based or functional assay
# [3] = biological target: T1, human GM-CSFRα, full length on cells; assay: cell-based or functional assay; remark: listed apart in the source
# [4] = biological target: T1, human GM-CSFRα, full length on cells; assay: cell-based or functional assay; remark: listed apart in the source
# [5] = biological target: T1, human GM-CSFRα, full length on cells; assay: cell-based or functional assay; remark: listed apart in the source
# [6] = biological target: T1, human GM-CSFRα, full length on cells; assay: cell-based or functional assay; remark: listed apart in the source
# [7] = biological target: T1, human GM-CSFRα, full length on cells; assay: cell-based or functional assay; remark: listed apart in the source
# [8] = biological target: T1, human GM-CSFRα, full length on cells; assay: cell-based or functional assay; remark: listed apart in the source
# [9] = biological target: T1, human GM-CSFRα, full length on cells; assay: cell-based or functional assay; remark: listed apart in the source
# [10] = biological target: T3, human GM-CSFRα-6His; assay: SPR, Biacore T200, antibody (IgG4) on CM5 chip, GMRah as analyte
# Method: The affinities for GMRah at various concentrations were measured. […] The concentrations of 0.625 and 0 nM were repeated once. Using the SPR technology, the association and dissociation rates were measured, and binding affinity was determined.
# [11] = biological target: T3, human GM-CSFRα-6His; assay: ELISA, antibodies as human IgG4, one bar for each protein; antibody concentration not shown
# [12] = biological target: T3, human GM-CSFRα-6His; assay: competitive ELISA, title on the sheet 'Blocking GMRah binding to GM-CSF'; antibody (human IgG4) titrated; blocked ligand GM-CSF; x axis 'Log Ab concentration', no unit
molecule,measurement,setting,value
Mab-IgG4 (Mavrilimumab) (antibody),"IC50, CD11b expression on human peripheral blood cells",[1],0.181 µg/mL
same,"IC50, IL-1β secretion by PBMC",[1],0.0126 µg/mL
same,"IC50, TNFα secretion by PBMC (ELISA)",[1],1.74 µg/mL
same,"IC50, TNFα secretion by PBMC (Human Macrophage/Microglia Panel)",[1],3.09 µg/mL
B1,"IC50, cynomolgus monkey granulocyte shape change",[2],0.00253 µg/mL
same,"IC50, human granulocyte shape change",[3],0.00205 µg/mL
same,"IC50, human granulocyte survival",[4],0.0042 µg/mL
same,"IC50, CD11b expression on human peripheral blood cells",[5],0.111 µg/mL
same,"IC50, TNFα secretion by PBMC (Human Macrophage/Microglia Panel)",[6],0.278 µg/mL
same,"IC50, IL-1β secretion by PBMC",[7],0.00353 µg/mL
same,"IC50, TNFα secretion by PBMC (ELISA)",[8],0.329 µg/mL
same,"IC50, TF-1 cell proliferation",[9],0.0474 µg/mL
same,Kd,[10],8.9 pM
same,koff,[10],4.78e-05 s⁻¹
same,kon,[10],5.37e+06 M⁻¹ s⁻¹
B2,binding result,[11],binds
B3,binding result,[12],binds
B4,binding result,[12],binds
B5,"IC50, human granulocyte shape change",[3],0.00151 µg/mL
same,"IC50, human granulocyte survival",[4],0.00253 µg/mL
same,"IC50, CD11b expression on human peripheral blood cells",[5],0.144 µg/mL
same,"IC50, TNFα secretion by PBMC (Human Macrophage/Microglia Panel)",[6],0.0666 µg/mL
same,"IC50, IL-1β secretion by PBMC",[7],0.0133 µg/mL
same,"IC50, TNFα secretion by PBMC (ELISA)",[8],0.0935 µg/mL
same,Kd,[10],6.75 pM
same,koff,[10],2.42e-05 s⁻¹
same,kon,[10],3.58e+06 M⁻¹ s⁻¹
B6,binding result,[12],binds
B7,"IC50, human granulocyte shape change",[3],0.00207 µg/mL
same,"IC50, human granulocyte survival",[4],0.00552 µg/mL
B8,binding result,[12],binds

# Source: patent US20230002496A1 (STAIDSON BEIJING BIOPHARMACEUTICALS, published 2023)
